Changes are numbered by the printed parent chain. Names and notes keep the numbering of the source. Read-outs that look alike come from different tables or passages of the source.

Experiment [1] addresses T1, SARS-CoV-2 spike S2P (ectodomain of the SARS-CoV-2 S trimer) (SARS-CoV-2, ancestral (P0DTC2 sequence), stabilised). Kind of experiment: cell-based or functional assay.
Experiment [2] has as its target T1, SARS-CoV-2 spike S2P (ectodomain of the …). Kind of experiment: SPR.
The target is the same in experiment [3]. Kind of experiment: cryo-EM structure.
The target is the same in experiment [4]. Put plainly: cryo-EM structure. This is another data set of the same source.
Experiment [5] shares this target. Put plainly: cryo-EM structure. This is another data set of the same source.

B1: 2-4 IgG with the somatic hypermutation A60T (heavy chain) reverted to germline (antibody, V domains shown)
VH: not shown
VL: QSALTQPPSASGSPGQSVTISCTGTSSDVGGYNYVSWYQQHPGKAPKLMIYEVSKRPSGVPDRFSGSKSGNTASLTVSGLQAEDEADYYCSSYAGSNNLVFGGGTKLTVL
For B1, the “pseudovirus neutralization, fold reduction against 2-4 IgG” value in experiment [1] was ~9 fold. Also, the “fold reduction of binding affinity against 2-4 IgG” value in experiment [2] was ~6 fold.

B2: 2-43 IgG with the paratope somatic hypermutation S76T (heavy chain) reverted to germline (antibody, V domains shown)
VH: not shown
VL: QSALTQPASVSGSPGQSITISCTGTSSDVGGYNYVSWYQQHPGKAPKLMIYDVSKRPSGVSNRFSGSKSGNTASLTISGLQAEDEGDYYCSSYTSSSTWVFGGGTKLTVL
As for B2, the “pseudovirus neutralization potency, fold reduction against 2-43 IgG” value in experiment [1] was ~5 fold. For the same molecule, the “fold reduction of IgG-apparent binding affinity against 2-43 IgG” value in experiment [2] is ~6 fold.

B3: 2-43 Fab (Fab, V domains shown)
VH: not shown
VL: B2 VL
Turning to B3, in experiment [1], the “neutralization potency of the Fab, fold less than its IgG form” value is ~140 fold. The “stoichiometry N” value in experiment [3] came to 3 Fab per spike trimer.

B4: 2-15 Fab (Fab, V domains shown)
VH: QVQLVQSGAEVKKPGASVRVSCKASGYTFTGYYMHWVRQAPGQGLEWMGWINPISDGTNYAQKFQGWVTMTRDTSISTVYMELSRLRSDDTAVYYCARGGSRCSGGNCYGWAYDAFDIWGQGTMITVSS
VL: B2 VL with Y34F, G86A, Y88C, W99F, G103T, L107V
As to B4, the “neutralization potency of the Fab, fold less than its IgG form” value in experiment [1] was ~95 fold. In addition, the “stoichiometry N” value in experiment [4] amounted to 1 Fab per spike trimer.

B5: 2-15 IgG with the paratope somatic hypermutation N53I (heavy chain) reverted to germline (antibody, V domains shown)
VH: B4 VH with I54N
VL: B2 VL with Y34F, G86A, Y88C, W99F, G103T, L107V
With B5, the “pseudovirus neutralization potency, fold reduction against 2-15 IgG” value in experiment [1] is 217 fold. The “fold reduction of binding affinity against 2-15 IgG” value in experiment [2] was 56 fold.

B6: H4 Fab (Fab, V domains shown)
VH: not shown
VL: DIQMTQSPLSLPVTPGEPASISCRSSQSLLDSDDGNTYLDWYLQKPGQSPQLLIYTLSYRASGVPDRFSGSGSGTDFTLKISRVEAEDVGVYYCMQRIEFPLTFGGGTKVEIK
On to B6, for which the “stoichiometry N” value in experiment [5] was found to be 1 Fab per spike trimer.

Source of the values: publication PMC7972811 (Cell Reports, 2021).
